Measured values as given in patent US20060147463A1.

What was measured:
[1] = biological target: alcohol dehydrogenase; assay: cell-based or functional assay
[2] = biological target: carboxy-terminal truncated Hsp20 (Babesia bovis) (Babesia bovis); assay: size exclusion FPLC (Superose 6) (self-association)

Substance	molar ratio of greatest reduction in light scattering at time infinity (molar ratio Hsp20 to ADH) [1]	reduction in light scattering of ADH at 58° C., 60 minutes, molar ratio 2:1 Hsp20:ADH [1]	percent of protein as dimer [2]
His-tagged Hsp20 from Babesia bovis (full length)	2	2.3 fold	
carboxy-terminal truncated Hsp20 (Babesia bovis)			42%
